Laboratory results from patent US20120058906A1 (published 2012).
Positions count from the first letter of the chain named. Names and notes keep the numbering of the source. Each block holds one binder with its values, some of them ahead of it.

What was measured:
[1] = molecular target: T1, rHuman Erythropoietin R/Fc Chimera, CF (R&D Systems Cat#963-ER) (human, UniProt P19235 25-250); assay: ECL (MSD multi-spot), antigen spotted on plate; Fab 10 nM; blank 550
T1 construct: Bought protein; also called EPO R/Fc; Epo R; Fc part of the bought chimera not given
T1 sequence: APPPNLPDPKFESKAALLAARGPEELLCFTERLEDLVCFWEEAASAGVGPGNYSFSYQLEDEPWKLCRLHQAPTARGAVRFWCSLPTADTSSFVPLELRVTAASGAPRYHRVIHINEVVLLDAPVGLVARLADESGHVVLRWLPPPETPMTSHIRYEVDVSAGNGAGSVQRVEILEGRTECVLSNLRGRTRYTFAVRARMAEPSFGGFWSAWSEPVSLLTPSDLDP

[2] = molecular target: T2, Recombinant Human DLL4 (R&D Systems Cat#1506-D4/CF) (human, UniProt Q9NR61 27-524); assay: as above
T2 construct: Bought protein; also called rHuman DLL4; delta-like protein 4

[3] = molecular target: T3, rHuman P-Cadherin/Fc Chimera, CF (R&D Systems Cat#861-PC) (human, UniProt P22223 108-654); assay: as above
T3 construct: Bought protein; also called CDH3; Fc part of the bought chimera not given

[4] = molecular target: T4, rHuman Notch-1/Fc Chimera, CF (R&D Systems Cat#3647-TK) (human, UniProt P46531 19-526); assay: as above
T4 construct: Bought protein; Fc part of the bought chimera not given

[5] = molecular target: T5, rHuman ErbB2/Fc Chimera, CF (R&D Systems Cat#1129-ER) (human, UniProt P04626 23-652); assay: as above
T5 construct: Bought protein; also called HER2/neu; human epidermal growth factor 2 receptor; Fc part of the bought chimera not given

[6] = molecular target: T6, rHuman EGF R/Fc Chimera, CF (R&D Systems Cat#344-ER) (human, UniProt P00533 25-645); assay: as above
T6 construct: Bought protein; also called epidermal growth factor receptor; Fc part of the bought chimera not given

[7] = molecular target: T7, rHuman IGF-1 sR (IGF-1 sR), CF (R&D Systems Cat#391-GR) (human, UniProt P08069 31-932); assay: as above
T7 construct: Bought soluble receptor; also called insulin-like growth factor-1 soluble receptor; IGF-R1

[8] = molecular target: T8, rHuman HGF R/c-MET/Fc Chimera, CF (R&D Systems Cat#358-MT/CF) (human, UniProt P08581 25-932); assay: as above
T8 construct: Bought protein; also called HGF R/Fc; hepatocyte growth factor receptor; Fc part of the bought chimera not given

[9] = molecular target: T9, rHuman CD44/Fc Chimera, CF (R&D Systems Cat#3660-CD) (human, UniProt P16070 21-220); assay: as above
T9 construct: Bought protein; Fc part of the bought chimera not given

[10] = molecular target: T1, rHuman Erythropoietin R/Fc Chimera, CF …; assay: ECL (MSD multi-spot), antigen spotted on plate; Fab 1000 nM; blank 760
[11] = molecular target: T2, Recombinant Human DLL4 (R&D Systems …); assay: as above
[12] = molecular target: T3, rHuman P-Cadherin/Fc Chimera, CF (R&D …); assay: as above
[13] = molecular target: T4, rHuman Notch-1/Fc Chimera, CF (R&D …); assay: as above
[14] = molecular target: T5, rHuman ErbB2/Fc Chimera, CF (R&D …); assay: as above
[15] = molecular target: T6, rHuman EGF R/Fc Chimera, CF (R&D …); assay: as above
[16] = molecular target: T7, rHuman IGF-1 sR (IGF-1 sR), CF (R&D …); assay: as above
[17] = molecular target: T8, rHuman HGF R/c-MET/Fc Chimera, CF (R&D …); assay: as above
[18] = molecular target: T9, rHuman CD44/Fc Chimera, CF (R&D Systems …); assay: as above
[19] = molecular target: T10, rHuman Erythropoietin R/Fc Chimera, CF (R&D Systems Cat#963-ER) (human, UniProt P19235 25-250); assay: ECL (MSD Multi-Spot) binding, antigen spotted on plate; Fab 1000 nM
T10 construct: Bought Fc chimera; also called EPO R/Fc; erythropoietin receptor; Fc part of the bought chimera not given
T10 sequence: T1 sequence

[20] = molecular target: T11, rHuman Notch-1/Fc Chimera, CF (R&D Systems Cat#3647-TK) (human, UniProt P46531 19-526); assay: as above
T11 construct: Bought Fc chimera; Fc part of the bought chimera not given

[21] = molecular target: T12, rHuman ErbB2/Fc Chimera, CF (R&D Systems Cat#1129-ER) (human, UniProt P04626 23-652); assay: as above
T12 construct: Bought Fc chimera; also called human epidermal growth factor 2 receptor; HER2/neu; Fc part of the bought chimera not given

[22] = molecular target: T13, rHuman HGF R/c-MET/Fc Chimera, CF (R&D Systems Cat#358-MT/CF) (human, UniProt P08581 25-932); assay: as above
T13 construct: Bought Fc chimera; also called HGF R/Fc; hepatocyte growth factor receptor; Fc part of the bought chimera not given

[23] = molecular target: T14, Recombinant Human DLL4 (R&D Systems Cat#1506-D4/CF) (human, UniProt Q9NR61 27-524); assay: as above
T14 construct: Bought recombinant protein; also called delta-like protein 4

[24] = molecular target: T15, rHuman P-Cadherin/Fc Chimera, CF (R&D Systems Cat#861-PC) (human, UniProt P22223 108-654); assay: as above
T15 construct: Bought Fc chimera; Fc part of the bought chimera not given

[25] = molecular target: T16, rHuman EGF R/Fc Chimera, CF (R&D Systems Cat#344-ER) (human, UniProt P00533 25-645); assay: as above
T16 construct: Bought Fc chimera; also called epidermal growth factor receptor; Fc part of the bought chimera not given

[26] = molecular target: T17, rHuman CD44/Fc Chimera, CF (R&D Systems Cat#3660-CD) (human, UniProt P16070 21-220); assay: as above
T17 construct: Bought Fc chimera; Fc part of the bought chimera not given

[27] = molecular target: T18, rHuman IGF-1 sR, CF (R&D Systems Cat#391-GR) (human, UniProt P08069 31-932); assay: as above
T18 construct: Bought soluble receptor; also called insulin-like growth factor-1 soluble receptor; IGF-R1

[28] = molecular target: T10, rHuman Erythropoietin R/Fc Chimera, CF …; assay: ECL (MSD Multi-Spot) binding, antigen spotted on plate; Fab 10 nM
[29] = molecular target: T11, rHuman Notch-1/Fc Chimera, CF (R&D …); assay: as above
[30] = molecular target: T12, rHuman ErbB2/Fc Chimera, CF (R&D …); assay: as above
[31] = molecular target: T13, rHuman HGF R/c-MET/Fc Chimera, CF (R&D …); assay: as above
[32] = molecular target: T14, Recombinant Human DLL4 (R&D Systems …); assay: as above
[33] = molecular target: T15, rHuman P-Cadherin/Fc Chimera, CF (R&D …); assay: as above
[34] = molecular target: T16, rHuman EGF R/Fc Chimera, CF (R&D …); assay: as above
[35] = molecular target: T17, rHuman CD44/Fc Chimera, CF (R&D Systems …); assay: as above
[36] = molecular target: T18, rHuman IGF-1 sR, CF (R&D Systems …); assay: as above
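Further: blank spot per well as comparator with Hit at signal to blank ratio of 4 or more.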

ECL signal [1]: 802
ECL signal [2]: 55100
ECL signal [3]: 846
ECL signal [4]: 792
ECL signal [5]: 847
ECL signal [6]: 773
ECL signal [7]: 814
ECL signal [8]: 859
ECL signal [9]: 746
ECL signal [10]: 1510
ECL signal [11]: 29800
ECL signal [12]: 1380
ECL signal [13]: 1210
ECL signal [14]: 1280
ECL signal [15]: 1910
ECL signal [16]: 1340
ECL signal [17]: 1360
ECL signal [18]: 1220
B1: Fab VH1-46_IGHD6-6*01_IGHJ1*01_S103P & L6_IGKJ1*01 (Fab, V domains shown)
VH: QVQLVQSGAEVKKPGASVKVSCKASGYTFTSYYMHWVRQAPGQGLEWMGIINPSGGSTSYAQKFQGRVTMTRDTSTSTVYMELSSLRSEDTAVYYCAREEYSPSSAEYFQHWGQGTLVTVSS
VL: not shown
notes: Expressed in E. coli as a Fab; CH1 with Flag and His tags comes from Plasmid A and the kappa CL from Plasmid C; also called IGHV1-46*01; IGHJ1*01 S103P with IGKV3-11*01

ECL signal [19]: 1320
ECL signal [20]: 1250
ECL signal [21]: 946
ECL signal [22]: 1660
ECL signal [23]: 22200
ECL signal [24]: 1500
ECL signal [25]: 1600
ECL signal [26]: 1090
ECL signal [27]: 1170
ECL signal [28]: 761
ECL signal [29]: 647
ECL signal [30]: 670
ECL signal [31]: 698
ECL signal [32]: 38700
ECL signal [33]: 691
ECL signal [34]: 677
ECL signal [35]: 681
ECL signal [36]: 657
B2: Fab VH1-46_IGHD6-6*01_IGHJ1*01_S102A & L6_IGKJ1*01 (Fab, V domains shown)
VH: B1 VH with S102A, P103S
VL: not shown
notes: Fab made in E. coli; The heavy chain also carries the CH1 with Flag and His tags of Plasmid A, and the light chain the kappa constant region of Plasmid C
